Assay results as given in paper PMC3709894, “Characterization of the Interaction between the Cohesin Subunits Rad21 and SA1/2” (PLoS ONE, 2013).

Target: T1, 6xHis-tagged SA2 (1–1051 aa), baculovirus-expressed (human, UniProt Q8N3U4 1-1051)
T1 construct: source: Sf21 insect cells, baculovirus, in cell extract; not shown: 6xHis, N-terminal, kept
T1 sequence (looked up): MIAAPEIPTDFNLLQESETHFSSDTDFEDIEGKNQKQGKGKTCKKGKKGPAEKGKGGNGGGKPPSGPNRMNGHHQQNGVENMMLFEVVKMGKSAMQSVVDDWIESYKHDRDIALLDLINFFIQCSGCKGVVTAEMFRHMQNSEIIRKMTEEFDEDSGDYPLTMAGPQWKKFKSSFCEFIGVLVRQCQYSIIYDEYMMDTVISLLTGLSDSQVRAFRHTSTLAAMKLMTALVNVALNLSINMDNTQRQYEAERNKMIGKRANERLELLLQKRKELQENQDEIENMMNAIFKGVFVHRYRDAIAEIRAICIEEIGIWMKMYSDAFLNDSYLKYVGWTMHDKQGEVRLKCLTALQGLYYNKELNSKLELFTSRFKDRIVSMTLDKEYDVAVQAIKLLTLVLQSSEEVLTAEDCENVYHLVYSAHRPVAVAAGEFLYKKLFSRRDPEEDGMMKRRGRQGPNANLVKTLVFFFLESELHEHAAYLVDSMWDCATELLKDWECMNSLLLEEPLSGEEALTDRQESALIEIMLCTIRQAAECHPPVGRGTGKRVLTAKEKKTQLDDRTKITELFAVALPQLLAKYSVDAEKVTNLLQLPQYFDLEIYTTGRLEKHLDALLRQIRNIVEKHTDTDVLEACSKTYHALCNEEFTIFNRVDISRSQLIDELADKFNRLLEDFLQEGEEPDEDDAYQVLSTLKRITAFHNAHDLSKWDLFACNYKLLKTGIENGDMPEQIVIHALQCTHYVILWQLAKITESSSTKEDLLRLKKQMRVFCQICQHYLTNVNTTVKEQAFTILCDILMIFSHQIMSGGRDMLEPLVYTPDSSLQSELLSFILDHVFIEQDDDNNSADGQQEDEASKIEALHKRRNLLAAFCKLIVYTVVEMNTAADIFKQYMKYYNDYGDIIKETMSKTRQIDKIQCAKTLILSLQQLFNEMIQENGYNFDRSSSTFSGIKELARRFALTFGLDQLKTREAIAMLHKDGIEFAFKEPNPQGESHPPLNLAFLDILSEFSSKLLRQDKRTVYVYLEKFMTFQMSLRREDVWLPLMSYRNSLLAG
Test: SEC; complex co-expressed in Sf21 cells and purified by Ni-NTA and anion exchange, then Superose 6 gel filtration; 25 mM Tris-HCl pH 7.5, 200 mM NaCl, 5% glycerol
Conditions: both partners purified

B1: Flag-tagged Rad21 (171–450 aa), baculovirus-expressed (domain or fragment, human, UniProt O60216 171-450, looked up)
chain: MREGSAFEDDDMLVSTTTSNLLLESEQSTSNLNEKINHLEYEDQYKDDNFGEGNDGGILDDKLISNNDGGIFDDPPALSEAGVMLPEQPAHDDMDEDDNVSMGGPDSPDSVDPVEPMPTMTDQTTLVPNEEEAFALEPIDITVKETKAKRKRKLIVDSVKELDSKTIRAQLSDYSDIVTTLDLAPPTKKLMMWKETGGVEKLFSLPAQPLWNNRLLKLFTRCLTPLVPEDLRKRRKGGEADNLDEFLKEFENPEVPREDQQQQHQQRDVIDEPIIEEPSR
notes: also called Rad21 middle region; source: Sf21 insect cells, baculovirus, in cell extract
  binding result: binds
